Source: paper PMC6193540

Key:
[1] = target: p53, endogenous in 93-VU-147T HNSCC cells (human (endogenous in 93-VU-147T)) (UniProt P04637); test: co-IP
[2] = target: p53, endogenous in 92-VU-040T HNSCC cells (human (endogenous in 92-VU-040T)) (UniProt P04637); test: co-IP

B1: PBF, HA-tagged (natural protein)
chain: QEPPGAACSQNTNKTCEECLKNVSCLWCNTNKACLDYPVTSVLPPASLCKLSSARWGVCWVNFEALIITMSVVGGTLLLGIAICCCCCCRRKRSRKPDRSEEKAMREREERRIRQEERRAEMKTRHDEIRKKYGLFKEENPYARFENN
[1]
  fold change of the binding to p53 in PTTG-depleted cells against Scr shRNA cells: 3.6 fold
[2]
  fold change of the binding to p53 in PTTG-depleted cells against Scr shRNA cells: 4 fold
